Patent US20110262358A1 (SAPPORO MEDICAL UNIVERSITY, published 2011)
Non-standard residues stand in square brackets, D forms with d. No end group written: not given here.

Molecular target: T1, HLA-A24 molecule (HLA-A2402) expressed on T2-A24 cells (human)
T1 construct: whole, on cells; MHC class I molecule on T2-A24 cells
Assay: HLA-A24 stabilisation on T2A24 cells, flow cytometry with anti-HLA-A24 antibody

Binder	binding result
FYGTGFGVYL [or7c1_251(10)]	binds
TYAGCLSQIF (also called peptide 93(10)) [or7c1_93(10)]	binds
MYTMVTPML [or7c1_277(9)]	binds

Now from value to binder:

binding result	Binder
binds	HYTV[code i]MNPQL (Synthetic OR7C1-derived peptide, printed HYTViMNPQL with a lower-case i) [or7c1_131(10)]
binds	MYLVTFTGNL [or7c1_34(10)]
